The values below come from patent CN112538116A (DONGDA BIOTECHNOLOGY SUZHOU CO LTD, dated 2021).

For one experiment, the target named is T1, 人4-1BB on Jurkat-4-1BB细胞 (human, UniProt Q07011 24-255).
T1 construct: whole, on cells; the reporter line Jurkat-4-1BB-NFkB-luc carries the same receptor; also called Jurkat-4-1BB-NFkB-luc; CD137
Description: FACS on Jurkat-4-1BB cells.

For experiment [1], the target named is T2, 4-1BB-ECD-hFc (human, UniProt Q07011 24-186).
T2 construct: extracellular domain; Coated on the ELISA plate; also called 4-1BB-hFc; 4-1BB-hFc蛋白; not shown: human Fc (hFc)
The experiment can be described thus: ELISA, 4-1BB-ECD-hFc coated.

Experiment [2] concerns the target T2, 4-1BB-ECD-hFc. The experiment can be described thus: ELISA, method as in Example 1.

T1 sequence (Q07011 24-255): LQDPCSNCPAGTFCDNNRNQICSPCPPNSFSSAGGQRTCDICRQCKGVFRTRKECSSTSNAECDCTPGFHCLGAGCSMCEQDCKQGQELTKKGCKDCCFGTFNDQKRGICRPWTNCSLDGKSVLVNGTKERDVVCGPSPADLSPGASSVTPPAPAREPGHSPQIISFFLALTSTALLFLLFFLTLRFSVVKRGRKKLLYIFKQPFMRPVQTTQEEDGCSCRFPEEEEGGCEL

B1: 抗人4-1BB杂交瘤抗体1A2 (antibody, V domains shown)
VH: EAQLQQSGAELVKPGASVKLSCTASGFNIKDTYMNWMKQRPEQGLEWIGRIAPANGNTKYAPQFQDKATITADTSSNTANLQLSSLTSEDTAVYYCARSYGSNFFDYWGQGTALTVSS
VL: EIQLTQSPASLAVSLGQRATISCKSSQSVDNYDNSFMHWYQQKPGQPPKLLIKRASNLETGVPARFSGSGSRTDFTLNIHPVEEEDTATYFCQQSVENPFTFGSGTKVELK
notes: Mouse hybridoma antibody purified on Protein A
As to B1, the binding result with 人4-1BB on Jurkat-4-1BB细胞 and in the experiment with 4-1BB-ECD-hFc [1] was “binds” each time.

B2: 抗人4-1BB杂交瘤抗体2F10 (antibody, V domains shown)
VH: QVQLQQSGAALVKPGASVKLSCTASGFNIEDTYLNWVKQRPEQGLEWIGKIYPANGDTKYDPKFQGKATITAETPSNKAYLQLSSLTSEDTAVYYCTRGYGSNFFDCWGQGTSLTVSS
VL: DIVLTQSPASLAVALGQRATISCRASESVDSYDNSFMHWYQQKVGQPPKLLIYRASNLESGLPARFSGSGSRTDFTLTINPVEADDVATYYCQQSNEDPYTFGGGTKLEII
notes: as for B1
On to B2, for which the binding result with 人4-1BB on Jurkat-4-1BB细胞 and with 4-1BB-ECD-hFc [1] was “binds” in each case.

B3: 抗人4-1BB杂交瘤抗体3A11 (antibody, V domains shown)
VH: EVQLVETGGGLVQPNGSLKLSCAASGFIFNTNAMNWVRQAPGKGLEWIARIRSKINNYATYYADSVKDRFTISRDDSQSMLYLQMNNLKTEDTGMYYCNWDEAYWGQGTLVTVSA
VL: DIQMTQSSSYLSVSLGGRVTVTCKASDHINNWLAWYQQKPGNAPRLLIFGATSLETGVPSRFSGSASGNDYTLTITSLQTEDVATYYCQQYWSIPYTFGGGTKLEIK
notes: as for B1
For the molecule B3, the binding result in the experiment with 人4-1BB on Jurkat-4-1BB细胞 and with 4-1BB-ECD-hFc [1] was “binds” in each case.

B4: 抗人4-1BB人源化抗体8H8 (antibody, V domains shown)
VH: QIQLVQSGSELKKPGASVKVSCKASGYTFSNYGMNWVRQAPGQGLEWMGWINTHTGEPTYADEFKGRFVFSLDTSVSTAYLQISSLKAEDTAVYYCARVLTMVMDYWGQGTLVTVSS
VL: DIVLTQSPDSLAVSLGERATINCRASEIIDGSGNSFVHWYQQKPGQPPKLLIYRTSTLESGVPDRFSGSGSRTDFTLTISSLQAEDVAVYYCLQTVEDPWTFGGGTKVEIK
notes: Humanised antibody expressed in 293 cells, purified on Protein A, captured by anti-human IgG in Biacore; also called hu8H8
Turning to B4, the binding result with 人4-1BB on Jurkat-4-1BB细胞 and with 4-1BB-ECD-hFc [2] was “binds” each time.

B5: 抗人4-1BB杂交瘤抗体8A8 (antibody, V domains shown)
VH: QVQLKQSGPGLVQPSQSLSITCTVSGFSLTNYGVHWVRQSPGKGLEWLGAIWSGGNTDYSAAFMSRVTINKDNSKSQVFFKMNSLRPDDTAIYYCARNPYYTNVMDYWGQGTSVTVSS
VL: DIQMTQSPASLSASVGETVTITCRASGNIGNFLAWYQQKQGKSPQLLVYNGETLADGVPSRFSGSGSGTQYSLKINSLQPEDFGSYYCQHFWSTPWTFGGGTKLEIK
notes: as for B1
For the molecule B5, the binding result with 人4-1BB on Jurkat-4-1BB细胞 and in the experiment with 4-1BB-ECD-hFc [1] was “binds” throughout.

B6: 抗人4-1BB杂交瘤抗体3F10 (antibody, V domains shown)
VH: QVQLQQSGAELVRPGASVKISCKAFGFTFTHHHINWVKQRPGQGLDWIGYINPYNDYSIYNQKFEGKATLTVDKSSSTAYMELSRLTSDDSAVYFCARGGLGRGYFDYWGQGTTLTVSS
VL: DIVMTQSTAIMSASLGEKVTMTCRASSSVTSSYLHWYQQKSGASPKIWISSTSNLASGVPVRFSGSGSGTSYSLTISSVEAEDAATYYCQQYSGNPYTFGGGTKLEIK
notes: as for B1
For B6, the binding result with 人4-1BB on Jurkat-4-1BB细胞 and with 4-1BB-ECD-hFc [1] was “binds” in each case.

B7: 抗人4-1BB人源化抗体1A2 (antibody, V domains shown)
VH: EAQLVQSGAEVKKPGATVKISCKVSGFNIKDTYMNWVQQAPGKGLEWIGRIAPANGNTKYAPQFQDRATITADTSTDTAYMELSSLRSEDTAVYYCARSYGSNFFDYWGQGTLVTVSS
VL: EIVLTQSPATLSLSPGERATLSCKSSQSVDNYDNSFMHWYQQKPGQAPRLLIYRASNLETGIPARFSGSGSRTDFTLTISSLEPEDFAVYYCQQSVENPFTFGQGTKLEIK
notes: Humanised antibody expressed in 293 cells, purified on Protein A, captured by anti-human IgG in Biacore; also called hu1A2
B7: the binding result with 人4-1BB on Jurkat-4-1BB细胞 and in the experiment with 4-1BB-ECD-hFc [2] was “binds” each time.

B8: 抗人4-1BB杂交瘤抗体10B2 (antibody, V domains shown)
VH: DVQLVESGGGLVQPGGSRKLSCAASGFTFSTFGLHWVRQAPEKGLEWVAYISSDSNTIYYADTMKGRFTISRDNPKNTLFLQLTSLRSEDTAVYYCTRGDPAYYGYGGRFVYALDFWGQGTSVAVSS
VL: DVVVTQTPLSLPVSFGDQVSISCRSSQSLTNSYGHTYLSWYLHKPGQSPQLLIYGISIRFSGVPDRFSGSGSGTDFTLRISTVKPEDLGMYYCLQGTHQPWTFGGGTKLEIK
notes: as for B1
Consider B8, for which the binding result with 人4-1BB on Jurkat-4-1BB细胞 and in the experiment with 4-1BB-ECD-hFc [1] was “binds” in each case.

B9: 抗人4-1BB人源化抗体3A11 (antibody, V domains shown)
VH: EVQLVESGGGLVKPGGSLRLSCAASGFIFNTNAMNWVRQAPGKGLEWIARIRSKINNYATYYADSVKDRFTISRDDSKNTLYLQMNSLKTEDTAVYYCNWDEAYWGQGTLVTVSS
VL: DIQMTQSPSSLSASVGDRVTITCKASDHINNWLAWYQQKPGKAPKLLIFGATSLETGVPSRFSGSASGNDYTLTISSLQPEDFATYYCQQYWSIPYTFGQGTKLEIK
notes: Humanised antibody expressed in 293 cells, purified on Protein A, captured by anti-human IgG in Biacore; also called hu3A11
Turning to B9, the binding result with 人4-1BB on Jurkat-4-1BB细胞 and with 4-1BB-ECD-hFc [2] was “binds” in each case.

B10: 抗人4-1BB人源化抗体10B2 (antibody, V domains shown)
VH: QVQLVESGGGVVQPGRSLRLSCAASGFTFSTFGLHWVRQAPGKGLEWVAYISSDSNTIYYADTMKGRFTISRDNSKNTLYLQMNSLRAEDTAVYYCTRGDPAYYGYGGRFVYALDFWGQGTLVTVSS
VL: DVVVTQTPLSLSVTPGQPASISCRSSQSLTNSYGHTYLSWYLQKPGQSPQLLIYGISIRFSGVPDRFSGSGSGTDFTLKISRVEAEDVGVYYCLQGTHQPWTFGGGTKVEIK
notes: Humanised antibody expressed in 293 cells, purified on Protein A, captured by anti-human IgG in Biacore; also called hu10B2
Take B10: the binding result with 人4-1BB on Jurkat-4-1BB细胞 and with 4-1BB-ECD-hFc [2] was “binds” each time.

B11: 抗人4-1BB杂交瘤抗体8H8 (antibody, V domains shown)
VH: QIQLVQSGPELKKPGETVKISCKASGYTFSNYGMNWVKQAPGKGLKWMGWINTHTGEPTYADEFKGRFAFSLETSVSTAYLQINNLKNEDTATYFCARVLTMVMDYWGQGTSVTVSS
VL: DIVLTQSPASLAVSLGQRATISCRASEIIDGSGNSFVHWYQQKPGQPPKLLIYRTSTLESGIPARFSGSGSRTDFTLTINPVEADDVATYSCLQTVEDPWTFGGGTKLEIK
notes: as for B1
Consider B11, for which the binding result in the experiment with 人4-1BB on Jurkat-4-1BB细胞 and in the experiment with 4-1BB-ECD-hFc [1] was “binds” each time.

B12: 抗人4-1BB杂交瘤抗体8E9 (antibody, V domains shown)
VH: QAQLQQSGPELVRPGTSVKMSCKTSGYSFTGYWMHWMKQRPGQGLEWIGMIDPSNSDTRLNQKFKDKATLNVDKSSNTAYMDFSSLTSEDSAVYYCARWRYYGYDGIAYWGQGTLVTVSA
VL: DIVMTQSPSSLTVTAGEKVTVSCKSSQSLLNSGNQRNYLTWYQQKPGQPPKLLIYWASTRESGVPDHFTGSGSGTDFTLTISSVQAEDLAVYYCQNDYTYPFTFGGGTKLEIK
notes: as for B1
As for B12, the binding result with 人4-1BB on Jurkat-4-1BB细胞 and with 4-1BB-ECD-hFc [1] was “binds” throughout.
